Data on 1 substance can be found in US20020110800.

This series deals with wild-type TrkA, baculovirus-expressed, activated (autophosphorylated) (UniProt P04629).

Consider SHP-1, for which the “dephosphorylation of 32P-autophosphorylated Trk in vitro” value was “approximately 5-fold dephosphorylation”.
